Where no end group is shown, it is not given here. Side-chain parts run from the residue outwards. [ ]: non-standard residue; d: D form. The star is where a group is joined. O‑CO‑N‑SO2‑IQ = carbamate-linked N-sulfonyl 5-aminoethylsulfonamide isoquinoline (O-CO-N-SO2-IQ); SO2‑IQ = 5-aminoethylsulfoneamide isoquinoline, O=S(=O)(NCCN*)c1cccc2cnccc12; X1 = 5‑aminoethylsulfonamide isoquinoline, O=S(=O)(NCCN*)c1cccc2cnccc12; S‑IQ = 5-mercaptoaminopropyl isoquinoline; hLeu = CC(C)CC[C@H](N)C(=O)O; GltNH2 = not defined here; Nle = CCCC[C@H](N)C(=O)O; Orn = NCCC[C@H](N)C(=O)O; bGaba = not defined here; Dab = NCC[C@H](N)C(=O)O; Nva = CCC[C@H](N)C(=O)O; Abu = CC[C@H](N)C(=O)O; Dap = NC[C@H](N)C(=O)O; Ph2 = not defined here; GlyNH2 = aminoglycine; Ava = NCCCCC(=O)O; βAla = NCCC(=O)O
B1: PTR 6020 (peptide)
peptide: RPRTS[Abu]F
modifications: not fully specified (C-terminus); printed as Arg-Pro-Arg-Thr-Ser-Abu-Phe-(O-CO-N-bAla-SO2-IQ); also: -(O-CO-N-bAla-SO2-IQ) on Phe7, attachment unclear

target: protein kinase A, catalytic subunit; experiment: cell-based or functional assay

| Binder | % inhibition of kinase activity at 1 µM; PKA-kinase Assay 1 | % inhibition of kinase activity at 1 µM; PKA-kinase Assay 2 | IC50 PKA |
| --- | --- | --- | --- |
| RPR[Orn]E([Gly-X1])[Dab][hLeu] (not fully specified (C-terminus)) [TY-60020-42] | 99% | 99% | 50 nM |

target: protein kinase B (UniProt P31749); experiment: cell-based or functional assay
Sequence (P31749 whole entry): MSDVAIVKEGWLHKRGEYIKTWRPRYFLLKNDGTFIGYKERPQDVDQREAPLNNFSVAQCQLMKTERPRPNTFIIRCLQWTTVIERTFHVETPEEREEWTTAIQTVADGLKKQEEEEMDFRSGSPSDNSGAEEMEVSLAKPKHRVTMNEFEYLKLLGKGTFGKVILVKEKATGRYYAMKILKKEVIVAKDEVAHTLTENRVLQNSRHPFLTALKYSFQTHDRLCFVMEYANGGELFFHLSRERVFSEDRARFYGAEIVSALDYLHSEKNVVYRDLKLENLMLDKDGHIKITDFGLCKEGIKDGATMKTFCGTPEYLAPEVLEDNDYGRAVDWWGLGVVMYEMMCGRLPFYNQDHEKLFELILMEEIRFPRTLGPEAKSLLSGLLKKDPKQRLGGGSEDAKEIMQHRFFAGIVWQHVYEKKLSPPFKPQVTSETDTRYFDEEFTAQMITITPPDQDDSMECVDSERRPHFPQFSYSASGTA

| Binder | % inhibition of kinase activity at 1 µM; PKB-kinase (spa) Assay 1 | % inhibition of kinase activity at 1 µM; PKB-kinase (spa) Assay 2 | IC50 PKB |
| --- | --- | --- | --- |
| RPR[Nle]E([βAla-X1])AF (not fully specified (C-terminus)) [TY-60020-93] | -12% | 58% |  |
| RPR[Orn]E([Gly-X1])[Dab][hLeu] (not fully specified (C-terminus)) [TY-60020-42] | 80% | 86% | 110 nM |
| RPR[Nle]E([βAla-X1])[Nva][hLeu] (not fully specified (C-terminus)) [TY-60020-96] | 0% | 54% |  |
| RPR[Nle]E([βAla-X1])A[hLeu] (not fully specified (C-terminus)) [TY-60020-94] | 9% | 31% |  |

target: protein kinase B, P31749; experiment: cell-based or functional assay
Sequence (P31749 whole entry): as above

| Binder | % Inhibition PKB I | Activity PKB | IC50 µM PKB | PKB IC50 | % Inhibition PKB II | IC50 PKB | % inhibition at 1 µM |
| --- | --- | --- | --- | --- | --- | --- | --- |
| RPRTS[Abu][hLeu] [TY 60002-73] | 44% | 5 µM | 34 µM |  |  |  |  |
| RPR[Nle]E([βAla-SO2‑IQ])[Dab]F [PTR 6140] |  |  |  | 0.413 µM |  |  |  |
| RPRT[Dap]SF (not fully specified (residue 5)) [PTR 6106] |  |  |  | 10 µM |  |  |  |
| RPR[Nle]E([βAla-SO2‑IQ])[Abu]F [PTR 6138] |  |  |  | 2 µM |  |  |  |
| RPRTE([Ava-SO2‑IQ])SF [PTR 6090] |  |  |  | 5.6 µM |  |  |  |
| RPRVS[Abu]F [TY 60002-61] |  | 5 µM |  |  |  |  |  |
| RPRTS[Dap][hLeu] [TY 60002-96] |  | 5 µM |  |  |  |  |  |
| RPRTSA[hLeu] [TY 60002-50] | 62% | 5 µM |  |  |  |  |  |
| RPR[Nva]E(SO2‑IQ)A[hLeu] [PTR 6150] |  |  |  | 25 µM |  |  |  |
| RPR[Nle]E(S‑IQ)SF [PTR 6136] |  |  |  | 0.114 µM |  |  |  |
| RPR[Nva][GlyNH2]A[hLeu] [60006-5A] | 47% |  | 10 µM |  | 43% |  |  |
| RPR[Nva]E([βAla-SO2‑IQ])A[hLeu] [PTR 6152] |  |  |  | 5 µM |  |  |  |
| RPRTE(S‑IQ)SF [PTR 6104] |  |  |  | 0.1 µM |  | 100 nM |  |
| RPR[Nva][GlyNH2][Dap][Ph2] (reading uncertain) [60006-11B] | 51% |  |  |  | 44% |  |  |
| RPR[Orn]E(SO2‑IQ)SF [PTR 6132] |  |  |  | 0.02 µM |  | 20 nM |  |
| RPR[Nle]SS[Nle] [AR 60003-62] |  | < 1 µM |  |  |  |  | 70% |
| RPRMSSF [AR 60003-50] |  | 2.5 µM |  |  |  |  |  |

| Binder | % Inhibition PKB I | Activity PKB | IC50 µM PKB | PKB IC50 | % Inhibition PKB II | IC50 PKB | % inhibition at 1 µM |
| --- | --- | --- | --- | --- | --- | --- | --- |
| RPRTS[GlyNH2]F [60005-5] | 96% |  | 2.4 µM |  | 93% |  |  |
| RPRTE(SO2‑IQ)SF [PTR 6016] |  | 0.9 µM |  | 1 µM |  |  |  |
| RPRTE([βAla-SO2‑IQ])SF [PTR 6082] |  |  |  | 5.54 µM |  |  |  |
| RPRTS[Abu]F-{O‑CO‑N‑SO2‑IQ} (not fully specified; printed as Arg-Pro-Arg-Thr-Ser-Abu-Phe-(O-CO-N-SO2-IQ)) [PTR 6013] |  | 3 µM |  | 4 µM |  |  |  |
| RPRTD(SO2‑IQ)SF [PTR 6130] |  |  |  | 9.5 µM |  |  |  |
| RPRTE([βAla-S‑IQ])SF [PTR 6102] |  |  |  | 0.3 µM |  | 300 nM |  |
| RPR[Nva][GlyNH2][Abu][hLeu] [60006-7B] | 53% |  |  |  | 47% |  |  |
| B1 |  | > 20 µM |  | 18 µM |  |  |  |
| RPR[Nva][GlyNH2][GltNH2][hLeu] (reading uncertain) [60006-16A] | 42% |  |  |  | 42% |  |  |
| RPR[Nle]E([βAla-SO2‑IQ])SF [PTR 6086] |  |  |  | 0.57 µM |  |  |  |
| RPR[Nle]E([βAla-SO2‑IQ])S[Nle] [PTR 6096] |  |  |  | 0.93 µM |  |  |  |
| RPR[Orn]E([bGaba-SO2‑IQ])SF (reading uncertain) [PTR 6088] |  |  |  | 1.18 µM |  |  |  |
| RPRTSE(SO2‑IQ)F [PTR 6014] |  | 25 µM |  | 25 µM |  |  |  |
| RPR[Nle]E(SO2‑IQ)SF [PTR 6128] |  |  |  | 9 µM |  |  |  |
| RPRRSSF [AR 60003-53] |  | 3 µM |  |  |  |  |  |
| RPR[Nva]E(S‑IQ)SF [PTR 6134] |  |  |  | 0.217 µM |  |  |  |
| RPR[Orn]SSF [AR 60003-52] |  | 2.5 µM |  |  |  |  |  |
